US20250171560A1

T1: C-terminal flag-tagged ACPP transmembrane protein expressed on 293T cells (pcDNA-ACPP-flag)
T1 sequence: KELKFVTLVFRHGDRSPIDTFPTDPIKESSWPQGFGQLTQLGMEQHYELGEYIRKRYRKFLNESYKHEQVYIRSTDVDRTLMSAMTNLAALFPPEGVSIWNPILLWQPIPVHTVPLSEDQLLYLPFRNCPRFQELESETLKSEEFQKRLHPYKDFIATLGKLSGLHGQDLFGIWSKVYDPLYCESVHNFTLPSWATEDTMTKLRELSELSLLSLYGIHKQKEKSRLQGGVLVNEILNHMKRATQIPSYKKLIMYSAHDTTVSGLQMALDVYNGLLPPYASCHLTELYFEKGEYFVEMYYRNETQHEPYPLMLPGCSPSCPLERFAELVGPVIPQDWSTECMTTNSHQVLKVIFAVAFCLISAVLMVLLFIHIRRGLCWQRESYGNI

B1: ACPP antibody S12D9 (human full antibody) (antibody, V domains shown)
VH: EVQLVQSGAEVRKPGSSVKVSCKASGDNFNNYGITWVRQAPGQGLEWMGRLITVLGLDNYAQKFQGRLTITADESTGTAYMELTGLEPEDTAVYYCARDIMSPEAIDAFDVWGQGTLVTVSS
VL: QPVLTQDPVVSVALGQTVRITCQGDSLRSYYATWYQQKPGLAPVRVIFGKNSRPSGIPDRFSGSSSGNTASLTITGAQAEDEADYYCNSWDNSANHPVFGGGTKLTVL
B2: ACPP antibody S10E12 (human full antibody) (antibody, V domains shown)
VH: B1 VH
VL: DIQMTQSPSSLSASVGDRVTITCRASQDVSNYLNWYQQKPGKAPKLLIYGASNRQTGVPSRFSGSGSGTDFTLTISSLQPEDFATYYCQQEDRFPTTFGQGTKVEIK
B3: ACPP antibody S12D4 (human full antibody) (antibody, V domains shown)
VH: QMQLVQSGAEVRRPGSSVKVSCKTSGGTLNNYDINWVRQAPGQGLEWMGWMNPTSGQADFAQKFQGRVSMTRDTSINTAFMELNTLRSEDTAVYYCVRRGGKYWGQGTLVTVSS
VL: QPVLTQDPAVSVALGQTVRITCQGDSLRKYYASWYQQKPGQAPRLVMYDENDRPSGIPDRFSGSSSGNTASLTITGAQADDEADYYCNSRDSSGHHVVFGGGTKVTVL
B4: ACPP antibody S9F5 (human full antibody) (antibody, V domains shown)
VH: EVQLVESGGGLVQPGGSLRLSCAASGFTFSNYWMSWVRQAPGKGLEWVAGISASGGNKYYADSVKGRFTISRDNSKNTLYLQMNSLRAEDTAVYYCAKGPIQLKRHKYVLDYWGQGTLVTVSS
VL: SYELTQPPSVSVAPGQTARITCGGDALPNNSVRWYQQKPGQAPVLVIYGNSERPSGIPERFSGSNSGNTATLTISGTQAEDEADYYCQVSDKSTKYSVFGGGTKLTVL
B5: ACPP antibody S4C7 (human full antibody) (antibody, V domains shown)
VH: QMLVQSGAEVKRPGSSVTVSCETSGDTFSRYAISWLRQAPGQGLEWLGWISGNSGRADYAQNFQGRVTMTTDRSTSTAYLNLRSLRSDDTAVYYCARDAPMLFGVRGGGYYFGMDVWGQGTTVTVSS
VL: EIVLTQSASSLSASVGDRVTITCRTSQNIYRYLNWYQQKPGKAPKLLIFGASTLQTGVPSRFSGSGSGTDFTLTITGLQPEDLATYYCQHSFKLPFTFGQGTRLEIK

target: T1, C-terminal flag-tagged ACPP transmembrane protein expressed on 293T cells (pcDNA-ACPP-flag); test: flow cytometry on 293T cells transfected with pcDNA-ACPP-flag, surface staining without permeabilisation, goat anti human-FITC secondary antibody

% of cells in the positive gate V1R [%] | Binder
0.01 | B1
0.18 | B2
0.06 | B3
0.15 | B4
0.1 | B5
